Results as given in paper PMC3250429, “Recombinant Probiotic Expressing Listeria Adhesion Protein Attenuates Listeria monocytogenes Virulence In Vitro” (PLoS ONE, 2012).

Target: human Hsp60 (human, UniProt P10809 27-573, biotin (biotinylated Hsp60, site not stated))
Assay: cell-based or functional assay

Sequence of human Hsp60 (P10809 27-573): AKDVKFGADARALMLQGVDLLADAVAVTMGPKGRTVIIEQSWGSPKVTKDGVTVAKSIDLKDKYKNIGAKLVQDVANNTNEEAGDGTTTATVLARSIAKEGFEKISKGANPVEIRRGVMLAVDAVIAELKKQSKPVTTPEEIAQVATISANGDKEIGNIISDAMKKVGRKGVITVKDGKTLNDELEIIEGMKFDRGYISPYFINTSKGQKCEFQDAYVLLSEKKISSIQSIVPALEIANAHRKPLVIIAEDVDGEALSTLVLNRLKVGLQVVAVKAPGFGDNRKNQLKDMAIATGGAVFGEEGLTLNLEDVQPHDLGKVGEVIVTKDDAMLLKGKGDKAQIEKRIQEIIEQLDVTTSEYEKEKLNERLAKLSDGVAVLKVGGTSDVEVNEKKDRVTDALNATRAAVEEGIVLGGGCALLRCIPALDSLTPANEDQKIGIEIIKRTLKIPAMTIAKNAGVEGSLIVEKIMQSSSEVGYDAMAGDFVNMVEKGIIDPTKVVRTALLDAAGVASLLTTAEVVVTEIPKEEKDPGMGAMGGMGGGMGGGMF

B1: Listeria adhesion protein (LAP) of L. monocytogenes expressed on recombinant Lactobacillus paracasei (Lbp^LAP) (natural protein)
chain: MAIKENAAQEVLEVQKVIDRLADNGQKALKAFESYNQEQVDNIVHAMALAGLDQHMPLAKLAVEETGRGLYEDKCIKNIFATEYIWNNIKNNKTVGVINEDLQTGVIEIAEPVGVVAGVTPVTNPTSTTLFKAIIAIKTRNPIIFAFHPSAQRCSSAAAKVVYDAAIAAGAPEHCIQWVEKPSLEATKQLMNHDKVALVLATGGAGMVKSAYSTGKPALGVGPGNVPAYIDKTAKIKRSVNDIILSKSFDQGMICASEQAVIVDKEVAKEVKAEMEANNCYFVKGAEFKKLESYVINPEKGTLNPDVVGKSPAWIANQAGFKVPEDTKILVAEIKGVGDKYPLSHEKLSPVLAFIEAANQAEAFDRCEEMLVYGGLGHSAVIHSTDKEVQKAFGIRMKACRIIVNAPSAQGGIGDIYNGFIPSLTLGCGSYGKNSVSQNVSATNLLNVKRIADRRNNMQWFKLPPKIFFEKYSTQYLQKMEGVERVFIVTDPGMVQFKYVDVVIEHLKKRGNDVSYQVFADVEPDPSDVTVYKGAELMKDFKPDTIIALGGGSAMDAAKGMWLFYEHPEASFFGLKQKFLDIRKRTFKYPKLGGKAKFVAIPTTSGTGSEVTPFAVITDKENNIKYPLADYELTPDVAIVDAQYVTTVPAHITADTGMDVLTHAIESYVSVMASDYTRGLSIRAIELVFENLRESVLTGDPDAREKMHNASALAGMAFANAFLGINHSLAHKIGPEFHIPHGRANAILMPHVIRYNALKPKKHALFPRYESFRADEDYARISRIIGFPAATTEEGVKSLVDEIIKLGKDVGIDMSLKGQNVAKKDLDAVVDTLADRAFMDQCTTANPKQPLVSELKEIYLEAYKGV
transepithelial translocation of Lbp^LAP cells through Caco-2 monolayers (transwell, 2 h), against Lbp^WT: 5.1 fold
